The text below walks through data of paper PMC10268231 (Nature, 2021).

Sequences and labels used below:
B2: PRIM1 (natural protein, human)
chain: ETFDPTELPELLKLYYRRLFPYSQYYRWLNYGGVIKNYFQHREFSFTLKDDIYIRYQSFNNQSDLEKEMQKMNPYKIDIGAVYSHRPNQHNTVKLGAFQAQEKELVFDIDMTDYDDVRRCCSSADICPKCWTLMTMAIRIIDRALKEDFGFKHRLWVYSGRRGVHCWVCDESVRKLSSAVRSGIVEYLSLVKGGQDVKKKVHLSEKIHPFIRKSINIIKKYFEEYALVNQDILENKESWDKILALVPETIHDELQQSFQKSHNSLQRWEHLKKVASRYQNNIKNDKYGPWLEWEIMLQYCFPRLDINVSKGINHLLKSPFSVHPKTGRISVPIDLQKVDQFDPFTVPTISFICRELDAISTNEEEKEENEAESDVKHRTRDYKKTSLAPYVKVFEHFLENLDKSRKGELLKKSDLQKDF

Common to all, as to experiment: cryo-EM structure
The target in one assay is T1, POLA1 (human, UniProt P09884 1-1462).
T1 sequence (looked up): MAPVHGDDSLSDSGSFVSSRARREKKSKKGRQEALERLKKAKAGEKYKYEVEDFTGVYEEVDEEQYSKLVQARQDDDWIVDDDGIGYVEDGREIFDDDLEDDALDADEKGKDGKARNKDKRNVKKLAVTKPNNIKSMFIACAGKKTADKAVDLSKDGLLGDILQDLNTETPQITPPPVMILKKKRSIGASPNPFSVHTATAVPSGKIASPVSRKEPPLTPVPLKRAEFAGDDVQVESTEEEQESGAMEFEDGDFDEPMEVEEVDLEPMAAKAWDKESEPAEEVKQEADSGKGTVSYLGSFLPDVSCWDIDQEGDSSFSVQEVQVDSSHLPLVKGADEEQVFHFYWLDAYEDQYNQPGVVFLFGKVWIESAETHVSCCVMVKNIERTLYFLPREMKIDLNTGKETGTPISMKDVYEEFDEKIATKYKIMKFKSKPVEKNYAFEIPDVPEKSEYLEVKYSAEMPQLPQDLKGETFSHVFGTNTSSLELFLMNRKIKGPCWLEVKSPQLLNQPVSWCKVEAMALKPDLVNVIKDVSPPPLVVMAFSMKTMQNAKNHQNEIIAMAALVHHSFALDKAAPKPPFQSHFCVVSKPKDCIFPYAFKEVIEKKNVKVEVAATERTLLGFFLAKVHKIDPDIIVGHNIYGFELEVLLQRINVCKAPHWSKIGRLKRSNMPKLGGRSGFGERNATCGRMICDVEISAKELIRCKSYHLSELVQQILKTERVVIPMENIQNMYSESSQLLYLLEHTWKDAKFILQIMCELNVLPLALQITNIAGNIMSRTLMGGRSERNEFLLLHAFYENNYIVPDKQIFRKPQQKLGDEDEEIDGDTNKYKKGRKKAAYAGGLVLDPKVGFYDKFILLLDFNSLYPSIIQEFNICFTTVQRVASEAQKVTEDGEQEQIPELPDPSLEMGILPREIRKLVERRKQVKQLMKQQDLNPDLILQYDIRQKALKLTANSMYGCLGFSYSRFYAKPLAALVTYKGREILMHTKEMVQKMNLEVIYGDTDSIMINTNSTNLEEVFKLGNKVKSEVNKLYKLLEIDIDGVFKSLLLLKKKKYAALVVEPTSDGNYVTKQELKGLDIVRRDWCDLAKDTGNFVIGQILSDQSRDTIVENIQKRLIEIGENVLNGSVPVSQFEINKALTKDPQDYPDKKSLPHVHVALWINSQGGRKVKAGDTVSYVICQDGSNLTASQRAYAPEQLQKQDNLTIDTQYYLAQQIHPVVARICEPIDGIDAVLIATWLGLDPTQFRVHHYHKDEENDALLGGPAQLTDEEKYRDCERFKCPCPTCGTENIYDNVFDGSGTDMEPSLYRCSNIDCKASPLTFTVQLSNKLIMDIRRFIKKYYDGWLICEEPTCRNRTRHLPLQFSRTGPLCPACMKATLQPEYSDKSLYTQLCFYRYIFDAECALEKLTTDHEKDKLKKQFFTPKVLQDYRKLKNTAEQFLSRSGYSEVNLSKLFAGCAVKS

The next assay has as its target T2, PRIM2 (human, UniProt P49643-1 1-509).
T2 sequence (looked up): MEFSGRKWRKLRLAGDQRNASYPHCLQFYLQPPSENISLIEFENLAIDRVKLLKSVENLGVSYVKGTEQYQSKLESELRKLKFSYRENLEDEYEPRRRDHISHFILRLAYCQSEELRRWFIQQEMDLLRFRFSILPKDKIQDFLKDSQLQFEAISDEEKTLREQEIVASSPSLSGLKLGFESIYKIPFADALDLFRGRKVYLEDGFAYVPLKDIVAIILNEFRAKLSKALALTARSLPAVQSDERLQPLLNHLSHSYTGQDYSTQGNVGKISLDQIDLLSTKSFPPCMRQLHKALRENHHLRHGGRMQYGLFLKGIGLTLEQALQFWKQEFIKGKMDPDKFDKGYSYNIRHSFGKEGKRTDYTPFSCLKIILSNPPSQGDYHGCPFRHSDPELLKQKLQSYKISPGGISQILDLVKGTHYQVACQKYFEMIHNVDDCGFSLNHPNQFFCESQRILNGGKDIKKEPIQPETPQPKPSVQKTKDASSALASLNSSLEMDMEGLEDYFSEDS

For the assay “PRIM1”, the target named is B2.

B1: CTC1 (natural protein, human, UniProt Q2NKJ3 1-1217, looked up)
chain: MAAGRAQVPSSEQAWLEDAQVFIQKTLCPAVKEPNVQLTPLVIDCVKTVWLSQGRNQGSTLPLSYSFVSVQDLKTHQRLPCCSHLSWSSSAYQAWAQEAGPNGNPLPREQLLLLGTLTDLSADLEQECRNGSLYVRDNTGVLSCELIDLDLSWLGHLFLFPRWSYLPPARWNSSGEGHLELWDAPVPVFPLTISPGPVTPIPVLYPESASCLLRLRNKLRGVQRNLAGSLVRLSALVKSKQKAYFILSLGRSHPAVTHVSIIVQVPAQLVWHRALRPGTAYVLTELRVSKIRGQRQHVWMTSQSSRLLLLKPECVQELELELEGPLLEADPKPLPMPSNSEDKKDPESLVRYSRLLSYSGAVTGVLNEPAGLYELDGQLGLCLAYQQFRGLRRVMRPGVCLQLQDVHLLQSVGGGTRRPVLAPCLRGAVLLQSFSRQKPGAHSSRQAYGASLYEQLVWERQLGLPLYLWATKALEELACKLCPHVLRHHQFLQHSSPGSPSLGLQLLAPTLDLLAPPGSPVRNAHNEILEEPHHCPLQKYTRLQTPSSFPTLATLKEEGQRKAWASFDPKALLPLPEASYLPSCQLNRRLAWSWLCLLPSAFCPAQVLLGVLVASSHKGCLQLRDQSGSLPCLLLAKHSQPLSDPRLIGCLVRAERFQLIVERDVRSSFPSWKELSMPGFIQKQQARVYVQFFLADALILPVPRPCLHSATPSTPQTDPTGPEGPHLGQSRLFLLCHKEALMKRNFCVPPGASPEVPKPALSFYVLGSWLGGTQRKEGTGWGLPEPQGNDDNDQKVHLIFFGSSVRWFEFLHPGQVYRLIAPGPATPMLFEKDGSSCISRRPLELAGCASCLTVQDNWTLELESSQDIQDVLDANKSLPESSLTDLLSDNFTDSLVSFSAEILSRTLCEPLVASLWMKLGNTGAMRRCVKLTVALETAECEFPPHLDVYIEDPHLPPSLGLLPGARVHFSQLEKRVSRSHNVYCCFRSSTYVQVLSFPPETTISIPLPHIYLAELLQGGQSPFQATASCHIVSVFSLQLFWVCAYCTSICRQGKCTRLGSTCPTQTAISQAIIRLLVEDGTAEAVVTCRNHHVAAALGLCPREWASLLDFVQVPGRVVLQFAGPGAQLESSARVDEPMTMFLWTLCTSPSVLRPIVLSFELERKPSKIVPLEPPRLQRFQCGELPFLTHVNPRLRLSCLSIRESEYSSSLGILASSC
As for B1, the binding result with POLA1 is on record as “binds”. Turning to B2, the binding result with PRIM2 was “binds”.

B3: STN1 (natural protein, human)
chain: QPGSSRCEEETPSLLWGLDPVFLAFAKLYIRDILDMKESRQVPGVFLYNGHPIKQVDVLGTVIGVRERDAFYSYGVDDSTGVINCICWKKLNTESVSAAPSAARELSLTSQLKKLQETIEQKTKIEIGDTIRVRGSIRTYREEREIHATTYYKVDDPVWNIQIARMLELPTIYRKVYDQPFHSSALEKEEALSNPGALDLPSLTSLLSEKAKEFLMENRVQSFYQQELEMVESLLSLANQPVIHSASSDQVNFKKDTTSKAIHSIFKNAIQLLQEKGLVFQKDDGFDNLYYVTREDKDLHRKIHRIIQQDCQKPNHMEKGCHFLHILACARLSIRPGLSEAVLQQVLELLEDQSDIVSTMEHYYTAF
Consider B3, for which the binding result with PRIM1 was “binds”.
